Experimental data as given in publication PMC7367873, “Dissecting the sequence determinants for dephosphorylation by the catalytic subunits of phosphatases PP1 and PP2A” (Nature Communications, 2020).

B1: PPFIBP1 (protein, UniProt Q86W92 1-1011, looked up)
Liprin-beta-1: MMSDASDMLAAALEQMDGIIAGSKALEYSNGIFDCQSPTSPFMGSLRALHLVEDLRGLLEMMETDEKEGLRCQIPDSTAETLVEWLQSQMTNGHLPGNGDVYQERLARLENDKESLVLQVSVLTDQVEAQGEKIRDLEFCLEEHREKVNATEEMLQQELLSRTSLETQKLDLMAEISNLKLKLTAVEKDRLDYEDKFRDTEGLIQEINDLRLKVSEMDSERLQYEKKLKSTKSLMAKLSSMKIKVGQMQYEKQRMEQKWESLKDELASLKEQLEEKESEVKRLQEKLVCKMKGEGVEIVDRDIEVQKMKKAVESLMAANEEKDRKIEDLRQCLNRYKKMQDTVVLAQGKDGEYEELLNSSSISSLLDAQGFSDLEKSPSPTPVMGSPSCDPFNTSVPEEFHTTILQVSIPSLLPATVSMETSEKSKLTPKPETSFEENDGNIILGATVDTQLCDKLLTSSLQKSSSLGNLKKETSDGEKETIQKTSEDRAPAESRPFGTLPPRPPGQDTSMDDNPFGTRKVRSSFGRGFFKIKSNKRTASAPNLAETEKETAEHLDLAGASSRPKDSQRNSPFQIPPPSPDSKKKSRGIMKLFGKLRRSQSTTFNPDDMSEPEFKRGGTRATAGPRLGWSRDLGQSNSDLDMPFAKWTKEQVCNWLMEQGLGSYLNSGKHWIASGQTLLQASQQDLEKELGIKHSLHRKKLQLALQALGSEEETNHGKLDFNWVTRWLDDIGLPQYKTQFDEGRVDGRMLHYMTVDDLLSLKVVSVLHHLSIKRAIQVLRINNFEPNCLRRRPSDENTIAPSEVQKWTNHRVMEWLRSVDLAEYAPNLRGSGVHGGLMVLEPRFNVETMAQLLNIPPNKTLLRRHLATHFNLLIGAEAQHQKRDAMELPDYVLLTATAKVKPKKLAFSNFGNLRKKKQEDGEEYVCPMELGQASGSASKKGFKPGLDMRLYEEDDLDRLEQMEDSEGTVRQIGAFSEGINNLTHMLKEDDMFKDFAARSPSASITDEDSNV
B2: NEDD4L (protein, UniProt Q96PU5 2-975, looked up)
E3 ubiquitin-protein ligase …: ATGLGEPVYGLSEDEGESRILRVKVVSGIDLAKKDIFGASDPYVKLSLYVADENRELALVQTKTIKKTLNPKWNEEFYFRVNPSNHRLLFEVFDENRLTRDDFLGQVDVPLSHLPTEDPTMERPYTFKDFLLRPRSHKSRVKGFLRLKMAYMPKNGGQDEENSDQRDDMEHGWEVVDSNDSASQHQEELPPPPLPPGWEEKVDNLGRTYYVNHNNRTTQWHRPSLMDVSSESDNNIRQINQEAAHRRFRSRRHISEDLEPEPSEGGDVPEPWETISEEVNIAGDSLGLALPPPPASPGSRTSPQELSEELSRRLQITPDSNGEQFSSLIQREPSSRLRSCSVTDAVAEQGHLPPPSAPAGRARSSTVTGGEEPTPSVAYVHTTPGLPSGWEERKDAKGRTYYVNHNNRTTTWTRPIMQLAEDGASGSATNSNNHLIEPQIRRPRSLSSPTVTLSAPLEGAKDSPVRRAVKDTLSNPQSPQPSPYNSPKPQHKVTQSFLPPGWEMRIAPNGRPFFIDHNTKTTTWEDPRLKFPVHMRSKTSLNPNDLGPLPPGWEERIHLDGRTFYIDHNSKITQWEDPRLQNPAITGPAVPYSREFKQKYDYFRKKLKKPADIPNRFEMKLHRNNIFEESYRRIMSVKRPDVLKARLWIEFESEKGLDYGGVAREWFFLLSKEMFNPYYGLFEYSATDNYTLQINPNSGLCNEDHLSYFTFIGRVAGLAVFHGKLLDGFFIRPFYKMMLGKQITLNDMESVDSEYYNSLKWILENDPTELDLMFCIDEENFGQTYQVDLKPNGSEIMVTNENKREYIDLVIQWRFVNRVQKQMNAFLEGFTELLPIDLIKIFDENELELLMCGLGDVDVNDWRQHSIYKNGYCPNHPVIQWFWKAVLLMDAEKRIRLLQFVTGTSRVPMNGFAELYGSNGPQLFTIEQWGSPEKLPRAHTCFNRLDLPPYETFEDLREKLLMAVENAQGFEGVD
B3: SRSF7 (protein, UniProt Q16629 1-238, looked up)
Serine/arginine-rich splicing …: MSRYGRYGGETKVYVGNLGTGAGKGELERAFSYYGPLRTVWIARNPPGFAFVEFEDPRDAEDAVRGLDGKVICGSRVRVELSTGMPRRSRFDRPPARRPFDPNDRCYECGEKGHYAYDCHRYSRRRRSRSRSRSHSRSRGRRYSRSRSRSRGRRSRSASPRRSRSISLRRSRSASLRRSRSGSIKGSRYFQSPSRSRSRSRSISRPRSSRSKSRSPSPKRSRSPSGSPRRSASPERMD
B4: FAM122B (protein, UniProt Q7Z309 2-247, looked up)
PABIR family member 2: AQEKMELDLEPDTSYGGTLRRSSSAPLIHGLSDLSQVFQPYTLRTRRNSTTIMSRHSLEEGLDMVNRETAHEREMQTAMQISQSWDESLSLSDSDFDKPEKLYSPKRIDFTPVSPAPSPTRGFGKMFVSSSGLPPSPVPSPRRFSRRSQSPVKCIRPSVLGPLKRKGEMETESQPKRLFQGTTNMLSPDAAQLSDLSSCSDILDGSSSSSGLSSDPLAKGSATAESPVACSNSCSSFILMDDLSPK
B5: PFKFB2 (protein, UniProt O60825 2-505, looked up)
6-phosphofructo-2-kinase/fruct …: SGASSSEQNNNSYETKTPNLRMSEKKCSWASYMTNSPTLIVMIGLPARGKTYVSKKLTRYLNWIGVPTKVFNLGVYRREAVKSYKSYDFFRHDNEEAMKIRKQCALVALEDVKAYLTEENGQIAVFDATNTTRERRDMILNFAEQNSFKVFFVESVCDDPDVIAANILEVKVSSPDYPERNRENVMEDFLKRIECYKVTYRPLDPDNYDKDLSFIKVINVGQRFLVNRVQDYIQSKIVYYLMNIHVQPRTIYLCRHGESEFNLLGKIGGDSGLSVRGKQFAQALRKFLEEQEITDLKVWTSQLKRTIQTAESLGVPYEQWKILNEIDAGVCEEMTYAEIEKRYPEEFALRDQEKYLYRYPGGESYQDLVQRLEPVIMELERQGNVLVISHQAVMRCLLAYFLDKGADELPYLRCPLHTIFKLTPVAYGCKVETIKLNVEAVNTHRDKPTNNFPKNQTPVRMRRNSFTPLSSSNTIRRPRNYSVGSRPLKPLSPLRAQDMQEGAD
B6: PI4KB (protein, UniProt Q9UBF8 2-816, looked up)
Phosphatidylinositol 4-kinase …: GDTVVEPAPLKPTSEPTSGPPGNNGGSLLSVITEGVGELSVIDPEVAQKACQEVLEKVKLLHGGVAVSSRGTPLELVNGDGVDSEIRCLDDPPAQIREEEDEMGAAVASGTAKGARRRRQNNSAKQSWLLRLFESKLFDISMAISYLYNSKEPGVQAYIGNRLFCFRNEDVDFYLPQLLNMYIHMDEDVGDAIKPYIVHRCRQSINFSLQCALLLGAYSSDMHISTQRHSRGTKLRKLILSDELKPAHRKRELPSLSPAPDTGLSPSKRTHQRSKSDATASISLSSNLKRTASNPKVENEDEELSSSTESIDNSFSSPVRLAPEREFIKSLMAIGKRLATLPTKEQKTQRLISELSLLNHKLPARVWLPTAGFDHHVVRVPHTQAVVLNSKDKAPYLIYVEVLECENFDTTSVPARIPENRIRSTRSVENLPECGITHEQRAGSFSTVPNYDNDDEAWSVDDIGELQVELPEVHTNSCDNISQFSVDSITSQESKEPVFIAAGDIRRRLSEQLAHTPTAFKRDPEDPSAVALKEPWQEKVRRIREGSPYGHLPNWRLLSVIVKCGDDLRQELLAFQVLKQLQSIWEQERVPLWIKPYKILVISADSGMIEPVVNAVSIHQVKKQSQLSLLDYFLQEHGSYTTEAFLSAQRNFVQSCAGYCLVCYLLQVKDRHNGNILLDAEGHIIHIDFGFILSSSPRNLGFETSAFKLTTEFVDVMGGLDGDMFNYYKMLMLQGLIAARKHMDKVVQIVEIMQQGSQLPCFHGSSTIRNLKERFHMSMTEEQLQLLVEQMVDGSMRSITTKLYDGFQYLTNGIM

System: GFP-14-3-3β and its binding proteins
Experiment: GFP-14-3-3β co-IP with LC-MS/MS label-free quantification, untreated versus PP1c-treated
Design: species or system human
Conditions: pairwise comparison PP1 vs untreated, student's t-test; 3 replicates each; LC-MS/MS label-free quantification

| Molecule | Difference (log2), PP1 vs untreated [log2] |
| --- | --- |
| B1 | -5.566 |
| B2 | -5.048 |
| B3 | -6.84 |
| B4 | -5.572 |
| B5 | -5.844 |
| B6 | -5.63 |

System: GFP-14-3-3β
Experiment: GFP-14-3-3β co-IP with LC-MS/MS, untreated GFP-14-3-3β versus GFP control (14-3-3 interactome)
Format: binding, human
Conditions: pairwise comparison untreated GFP-14-3-3β vs GFP, student's t-test; 3 replicates each; LC-MS/MS label-free quantification

| Molecule | Difference (log2), untreated vs GFP [log2] |
| --- | --- |
| B1 | 6.964 |
| B2 | 4.407 |
| B3 | 7.205 |
| B4 | 4.879 |
| B5 | 3.999 |
| B6 | 4.864 |
